Source: patent US20200024360A1 (Janssen / Centocor, published 2020)

B1: PS3B23 (bispecific antibody, human IgG4 S228P, kappa, lambda, F234A L235A)
heavy 1: not shown
light 1: not shown
heavy 2: EVQLVESGGGLVQPGGSLRLSCAASGFTFNTYAMNWVRQAPGKGLEWVARIRSKYNNYATYYAASVKGRFTISRDDSKNSLYLQMNSLKTEDTAVYYCARHGNFGNSYVSWFAYWGQGTLVTVSSASTKGPSVFPLAPCSRSTSESTAALGCLVKDYFPEPVTVSWNSGALTSGVHTFPAVLQSSGLYSLSSVVTVPSSSLGTKTYTCNVDHKPSNTKVDKRVESKYGPPCPPCPAPEAAGGPSVFLFPPKPKDTLMISRTPEVTCVVVDVSQEDPEVQFNWYVDGVEVHNAKTKPREEQFNSTYRVVSVLTVLHQDWLNGKEYKCKVSNKGLPSSIEKTISKAKGQPREPQVYTLPPSQEEMTKNQVSLTCLVKGFYPSDIAVEWESNGQPENNYKTTPPVLDSDGSFLLYSKLTVDKSRWQEGNVFSCSVMHEALHNHYTQKSLSLSLGK
light 2: QTVVTQEPSLTVSPGGTVTLTCRSSTGAVTTSNYANWVQQKPGQAPRGLIGGTNKRAPGTPARFSGSLLGGKAALTLSGVQPEDEAEYYCALWYSNLWVFGGGTKLTVLGQPKAAPSVTLFPPSSEELQANKATLVCLISDFYPGAVTVAWKADSSPVKAGVETTTPSKQSNNKYAASSYLSLTPEQWKSHRSYSCQVTHEGSTVEKTVAPTECS
notes: IgG4 PAA; PSMA arm chains first, then CD3 arm (F405L, R409K); also called PSMB123 x CD3B219
B2: PS3B30 (bispecific antibody, human IgG4 S228P, kappa, lambda, F234A L235A)
heavy 1: not shown
light 1: not shown
heavy 2: EVQLVESGGGLVQPGGSLRLSCAASGFTFNTYAMNWVRQAPGKGLEWVARIRSKYNNYATYYAASVKGRFTISRDDSKNSLYLQMNSLKTEDTAVYYCARHGNFGNSYVSWFAYWGQGTLVTVSSASTKGPSVFPLAPCSRSTSESTAALGCLVKDYFPEPVTVSWNSGALTSGVHTFPAVLQSSGLYSLSSVVTVPSSSLGTKTYTCNVDHKPSNTKVDKRVESKYGPPCPPCPAPEAAGGPSVFLFPPKPKDTLMISRTPEVTCVVVDVSQEDPEVQFNWYVDGVEVHNAKTKPREEQFNSTYRVVSVLTVLHQDWLNGKEYKCKVSNKGLPSSIEKTISKAKGQPREPQVYTLPPSQEEMTKNQVSLTCLVKGFYPSDIAVEWESNGQPENNYKTTPPVLDSDGSFLLYSKLTVDKSRWQEGNVFSCSVMHEALHNHYTQKSLSLSLGK
light 2: QTVVTQEPSLTVSPGGTVTLTCRSSTGAVTTSNYANWVQQKPGQAPRGLIGGTNKRAPGTPARFSGSLLGGKAALTLSGVQPEDEAEYYCALWYSNLWVFGGGTKLTVLGQPKAAPSVTLFPPSSEELQANKATLVCLISDFYPGAVTVAWKADSSPVKAGVETTTPSKQSNNKYAASSYLSLTPEQWKSHRSYSCQVTHEGSTVEKTVAPTECS
notes: IgG4 PAA; PSMA arm chains first, then CD3 arm (F405L, R409K); also called PSMB130 x CD3B219
B3: PS3B24 (bispecific antibody, human IgG4 S228P, kappa, lambda, F234A L235A)
heavy 1: not shown
light 1: not shown
heavy 2: EVQLVESGGGLVQPGGSLRLSCAASGFTFNTYAMNWVRQAPGKGLEWVARIRSKYNNYATYYAASVKGRFTISRDDSKNSLYLQMNSLKTEDTAVYYCARHGNFGNSYVSWFAYWGQGTLVTVSSASTKGPSVFPLAPCSRSTSESTAALGCLVKDYFPEPVTVSWNSGALTSGVHTFPAVLQSSGLYSLSSVVTVPSSSLGTKTYTCNVDHKPSNTKVDKRVESKYGPPCPPCPAPEAAGGPSVFLFPPKPKDTLMISRTPEVTCVVVDVSQEDPEVQFNWYVDGVEVHNAKTKPREEQFNSTYRVVSVLTVLHQDWLNGKEYKCKVSNKGLPSSIEKTISKAKGQPREPQVYTLPPSQEEMTKNQVSLTCLVKGFYPSDIAVEWESNGQPENNYKTTPPVLDSDGSFLLYSKLTVDKSRWQEGNVFSCSVMHEALHNHYTQKSLSLSLGK
light 2: QTVVTQEPSLTVSPGGTVTLTCRSSTGAVTTSNYANWVQQKPGQAPRGLIGGTNKRAPGTPARFSGSLLGGKAALTLSGVQPEDEAEYYCALWYSNLWVFGGGTKLTVLGQPKAAPSVTLFPPSSEELQANKATLVCLISDFYPGAVTVAWKADSSPVKAGVETTTPSKQSNNKYAASSYLSLTPEQWKSHRSYSCQVTHEGSTVEKTVAPTECS
notes: IgG4 PAA; PSMA arm chains first, then CD3 arm (F405L, R409K); also called PSMB124 x CD3B219
B4: PS3B19 (bispecific antibody, human IgG4 S228P, kappa, lambda, F234A L235A)
heavy 1: not shown
light 1: not shown
heavy 2: EVQLVESGGGLVQPGGSLRLSCAASGFTFNTYAMNWVRQAPGKGLEWVARIRSKYNNYATYYAASVKGRFTISRDDSKNSLYLQMNSLKTEDTAVYYCARHGNFGNSYVSWFAYWGQGTLVTVSSASTKGPSVFPLAPCSRSTSESTAALGCLVKDYFPEPVTVSWNSGALTSGVHTFPAVLQSSGLYSLSSVVTVPSSSLGTKTYTCNVDHKPSNTKVDKRVESKYGPPCPPCPAPEAAGGPSVFLFPPKPKDTLMISRTPEVTCVVVDVSQEDPEVQFNWYVDGVEVHNAKTKPREEQFNSTYRVVSVLTVLHQDWLNGKEYKCKVSNKGLPSSIEKTISKAKGQPREPQVYTLPPSQEEMTKNQVSLTCLVKGFYPSDIAVEWESNGQPENNYKTTPPVLDSDGSFLLYSKLTVDKSRWQEGNVFSCSVMHEALHNHYTQKSLSLSLGK
light 2: QTVVTQEPSLTVSPGGTVTLTCRSSTGAVTTSNYANWVQQKPGQAPRGLIGGTNKRAPGTPARFSGSLLGGKAALTLSGVQPEDEAEYYCALWYSNLWVFGGGTKLTVLGQPKAAPSVTLFPPSSEELQANKATLVCLISDFYPGAVTVAWKADSSPVKAGVETTTPSKQSNNKYAASSYLSLTPEQWKSHRSYSCQVTHEGSTVEKTVAPTECS
notes: IgG4 PAA; PSMA arm chains first, then CD3 arm (F405L, R409K); also called PSMB119 x CD3B219
B5: PS3B22 (bispecific antibody, human IgG4 S228P, kappa, lambda, F234A L235A)
heavy 1: not shown
light 1: DIQMTQSPSSLSASVGDRVTITCRASQSIDRWLNWYQQKPGKAPKLLIYAASSLQSGVPSRFSGSGSGTDFTLTISSLQPEDFATYYCQQSPRYPLTFGQGTKVEIKRTVAAPSVFIFPPSDEQLKSGTASVVCLLNNFYPREAKVQWKVDNALQSGNSQESVTEQDSKDSTYSLSSTLTLSKADYEKHKVYACEVTHQGLSSPVTKSFNRGEC
heavy 2: EVQLVESGGGLVQPGGSLRLSCAASGFTFNTYAMNWVRQAPGKGLEWVARIRSKYNNYATYYAASVKGRFTISRDDSKNSLYLQMNSLKTEDTAVYYCARHGNFGNSYVSWFAYWGQGTLVTVSSASTKGPSVFPLAPCSRSTSESTAALGCLVKDYFPEPVTVSWNSGALTSGVHTFPAVLQSSGLYSLSSVVTVPSSSLGTKTYTCNVDHKPSNTKVDKRVESKYGPPCPPCPAPEAAGGPSVFLFPPKPKDTLMISRTPEVTCVVVDVSQEDPEVQFNWYVDGVEVHNAKTKPREEQFNSTYRVVSVLTVLHQDWLNGKEYKCKVSNKGLPSSIEKTISKAKGQPREPQVYTLPPSQEEMTKNQVSLTCLVKGFYPSDIAVEWESNGQPENNYKTTPPVLDSDGSFLLYSKLTVDKSRWQEGNVFSCSVMHEALHNHYTQKSLSLSLGK
light 2: QTVVTQEPSLTVSPGGTVTLTCRSSTGAVTTSNYANWVQQKPGQAPRGLIGGTNKRAPGTPARFSGSLLGGKAALTLSGVQPEDEAEYYCALWYSNLWVFGGGTKLTVLGQPKAAPSVTLFPPSSEELQANKATLVCLISDFYPGAVTVAWKADSSPVKAGVETTTPSKQSNNKYAASSYLSLTPEQWKSHRSYSCQVTHEGSTVEKTVAPTECS
notes: IgG4 PAA; PSMA arm chains first, then CD3 arm (F405L, R409K); also called PSMB122 x CD3B219; PSB22
B6: PS3B20 (bispecific antibody, human IgG4 S228P, kappa, lambda, F234A L235A)
heavy 1: not shown
light 1: not shown
heavy 2: EVQLVESGGGLVQPGGSLRLSCAASGFTFNTYAMNWVRQAPGKGLEWVARIRSKYNNYATYYAASVKGRFTISRDDSKNSLYLQMNSLKTEDTAVYYCARHGNFGNSYVSWFAYWGQGTLVTVSSASTKGPSVFPLAPCSRSTSESTAALGCLVKDYFPEPVTVSWNSGALTSGVHTFPAVLQSSGLYSLSSVVTVPSSSLGTKTYTCNVDHKPSNTKVDKRVESKYGPPCPPCPAPEAAGGPSVFLFPPKPKDTLMISRTPEVTCVVVDVSQEDPEVQFNWYVDGVEVHNAKTKPREEQFNSTYRVVSVLTVLHQDWLNGKEYKCKVSNKGLPSSIEKTISKAKGQPREPQVYTLPPSQEEMTKNQVSLTCLVKGFYPSDIAVEWESNGQPENNYKTTPPVLDSDGSFLLYSKLTVDKSRWQEGNVFSCSVMHEALHNHYTQKSLSLSLGK
light 2: QTVVTQEPSLTVSPGGTVTLTCRSSTGAVTTSNYANWVQQKPGQAPRGLIGGTNKRAPGTPARFSGSLLGGKAALTLSGVQPEDEAEYYCALWYSNLWVFGGGTKLTVLGQPKAAPSVTLFPPSSEELQANKATLVCLISDFYPGAVTVAWKADSSPVKAGVETTTPSKQSNNKYAASSYLSLTPEQWKSHRSYSCQVTHEGSTVEKTVAPTECS
notes: IgG4 PAA; PSMA arm chains first, then CD3 arm (F405L, R409K); also called PSMB120 x CD3B219

Tests used:
[1] = target: T1, chimpanzee PSMA, full length (Pan troglodytes, UniProt Q04609 1-750 (human entry)); assay: FACS, whole cell binding, chimp PSMA HEK; calculated EC50
T1 construct: On transfected HEK293F cells; also called chimp PSMA; H2Q3K5_PANTR
T1 chain: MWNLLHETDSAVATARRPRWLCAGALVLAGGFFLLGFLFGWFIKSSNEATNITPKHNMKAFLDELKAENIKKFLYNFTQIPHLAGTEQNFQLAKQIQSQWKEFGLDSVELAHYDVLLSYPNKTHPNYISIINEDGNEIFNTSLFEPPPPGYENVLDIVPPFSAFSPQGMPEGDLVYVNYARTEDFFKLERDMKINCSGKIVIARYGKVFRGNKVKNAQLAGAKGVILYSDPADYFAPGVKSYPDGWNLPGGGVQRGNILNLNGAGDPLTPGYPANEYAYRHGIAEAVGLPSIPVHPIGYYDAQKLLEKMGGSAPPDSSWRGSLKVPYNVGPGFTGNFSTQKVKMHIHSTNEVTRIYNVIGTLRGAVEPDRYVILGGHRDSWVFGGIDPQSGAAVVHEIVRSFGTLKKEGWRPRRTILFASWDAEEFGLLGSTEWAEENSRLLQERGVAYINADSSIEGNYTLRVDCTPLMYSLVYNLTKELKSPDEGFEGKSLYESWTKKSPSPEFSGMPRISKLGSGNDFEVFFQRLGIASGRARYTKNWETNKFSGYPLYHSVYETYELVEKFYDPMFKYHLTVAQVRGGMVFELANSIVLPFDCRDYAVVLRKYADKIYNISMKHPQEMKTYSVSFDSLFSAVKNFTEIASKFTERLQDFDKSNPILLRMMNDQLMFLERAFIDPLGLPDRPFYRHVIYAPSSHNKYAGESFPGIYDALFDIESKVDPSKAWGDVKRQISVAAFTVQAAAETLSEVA
Procedure: (§1) PSMA×CD3 bispecific antibodies were tested for binding to PSMA positive cell lines LNCAP, human PSMA-HEK, Chimpanzee-PSMA-HEK and Cynomolgous monkey PSMA-HEK. To assess the binding capabilities of the PSMA bispecific antibodies, the cell-binding assay was utilized (described previously). Briefly, PSMA expressing tumor cells are bound by bispecific antibodies at known concentrations and the bound antibody is detected by an anti-human kappa light chain PE conjugated detection reagent (Invitrogen). The Mean Fluorescents Intensity (MFI) is the measure of bound bispecific antibody. The MFI is converted to a relative EC₅₀. EC₅₀ is a commonly used dose-response curve, where the half maximal effective concentration or the EC₅₀ point is defined as the inflection point of the curve. EC₅₀ s were determined by measuring cell bound bispecific and known concentrations. […] The dose response curves were then diluted down to that of background or no bispecific binding. The inflection point of this curve reflects the EC₅₀ point. The calculated EC₅₀ is determined by taking the ug/ml amount of bispecific antibody at the EC₅₀ point and converting it to a molarity value based on the MW of the bispecific antibody. Bispecific antibodies were normalized for protein concentration and then incubated with the same number of cells expressing either human or cyno PSMA. The MFI at each concentration was collected by flow cytometry and plotted as a function of concentration. Data was transformed via log 10 and then plotted. Nonlinear regression of binding curves was done to determine EC₅₀ s. These relative values were used for ranking PSMA binding to target cells.

[2] = target: T2, human PSMA (prostate specific membrane antigen), full length (human, UniProt Q04609 1-750); assay: FACS, whole cell binding, LNCaP; calculated EC50
T2 construct: On LNCaP or C4-2B cells (endogenous) or transduced HEK293F cells; also called FOLH1_HUMAN; hPSMA
Procedure: as §1

[3] = target: T2, human PSMA (prostate specific membrane …); assay: FACS, whole cell binding, LNCaP
Procedure: as §1

T2 sequence (Q04609 whole entry): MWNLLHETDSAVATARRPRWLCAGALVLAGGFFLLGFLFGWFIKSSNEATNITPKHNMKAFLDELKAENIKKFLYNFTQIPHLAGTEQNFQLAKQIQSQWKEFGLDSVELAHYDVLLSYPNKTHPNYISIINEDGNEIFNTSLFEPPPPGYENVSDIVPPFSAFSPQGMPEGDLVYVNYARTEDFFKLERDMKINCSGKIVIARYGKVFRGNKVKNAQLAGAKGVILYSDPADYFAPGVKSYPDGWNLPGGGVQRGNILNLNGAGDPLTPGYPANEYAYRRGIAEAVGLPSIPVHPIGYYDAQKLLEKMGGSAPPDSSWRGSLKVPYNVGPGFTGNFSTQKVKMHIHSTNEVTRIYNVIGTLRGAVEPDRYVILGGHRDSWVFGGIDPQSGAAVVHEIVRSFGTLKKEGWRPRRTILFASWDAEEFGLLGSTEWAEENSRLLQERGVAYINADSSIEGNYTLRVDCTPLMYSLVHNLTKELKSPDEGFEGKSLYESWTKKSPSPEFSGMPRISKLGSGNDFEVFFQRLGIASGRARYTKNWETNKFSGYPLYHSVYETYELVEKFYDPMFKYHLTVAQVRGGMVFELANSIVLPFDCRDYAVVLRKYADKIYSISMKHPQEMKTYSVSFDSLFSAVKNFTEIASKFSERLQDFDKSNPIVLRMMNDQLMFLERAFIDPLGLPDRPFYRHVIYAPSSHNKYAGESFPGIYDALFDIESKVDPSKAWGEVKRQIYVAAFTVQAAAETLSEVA

Binder | EC50 [1] | EC50 [2] | EC50 [3] | binding result [3]
B1 | 6.18 nM | – | – | –
B2 | 23.2 nM | 8.5 nM | 1.2 µg/mL | –
B3 | 7.75 nM | – | – | binds
B4 | 35.9 nM | – | – | binds
B5 | 21.2 nM | 18.3 nM | 2.6 µg/mL | –
B6 | 23.4 nM | 864 nM | 123 µg/mL | –
